Source: patent publication US20190161555A1 (ALLIGATOR BIOSCIENCE, published 2019)

Key:
cynomolgus 5T4 [1] = target: T1, cynomolgus 5T4 (Macaca mulatta (cynomolgus)); experiment: flow cytometry, CHO cells transfected with cynomolgus 5T4
T1 construct: whole, on cells; stably transfected CHO cells; also called cyno5T4; cy5T4
Procedure: (§1) The potency of 5T4 antibodies in binding to cynomolgus 5T4 was determined by flow cytometry. CHO cells were stably transfected with […] (cynomolgus) 5T4. […] Samples were analysed either on a FACSCalibur or a FACSverse (BD Biosciences, Heidelberg, Germany) and mean fluorescence intensity (MFI) determined. […] To compare the EC50 values between human and cynomolgus 5T4, the cy5T4/hu5T4 ratio was calculated from the experiment with the full dose-response.

[2] = target: T2, human 5T4 on transfected cells (human, UniProt Q13641 32-420); experiment: flow cytometry, 5T4-transfected A9 cells
T2 construct: whole, on cells; for B16 and A9 cells only a 5T4 construct is named; also called 5T4-transfected B16 cells; B16-5T4
T2 sequence (looked up): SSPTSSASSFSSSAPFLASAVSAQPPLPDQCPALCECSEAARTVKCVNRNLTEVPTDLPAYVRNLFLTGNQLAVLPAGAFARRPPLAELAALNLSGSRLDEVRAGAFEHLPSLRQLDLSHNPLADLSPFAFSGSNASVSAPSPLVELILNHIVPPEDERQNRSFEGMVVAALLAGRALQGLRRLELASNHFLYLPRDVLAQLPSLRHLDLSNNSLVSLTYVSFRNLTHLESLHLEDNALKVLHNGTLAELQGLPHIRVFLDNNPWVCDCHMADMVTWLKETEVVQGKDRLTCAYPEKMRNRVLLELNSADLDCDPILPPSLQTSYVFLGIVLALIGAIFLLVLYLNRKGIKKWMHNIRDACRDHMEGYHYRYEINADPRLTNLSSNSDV
Procedure: (§2) Analysis of 5T4 mAb binding with flow cytometry was performed using 5T4-transfected cell lines and as negative control, mock transfected cells. Three different transfected cell lines used were used for this study; B16, A9 and CHO, transfected either with a 5T4 construct or with an empty vector control construct. Cells were stained with 5T4 antibodies diluted in FACS buffer (PBS, 0.5% BSA and 0.02% NaN₃). […] Samples were analysed either on a FACSCalibur or a FACSverse (BD Biosciences, Heidelberg, Germany) and mean fluorescence intensity (MFI) determined.

[3] = target: T2, human 5T4 on transfected cells; experiment: flow cytometry, 5T4-transfected B16 cells
Procedure: as §2

cynomolgus 5T4 [4] = target: T1, cynomolgus 5T4; experiment: flow cytometry, CHO cells with cynomolgus 5T4 against CHO cells with human 5T4
Procedure: as §1

mouse 5T4 = target: T3, mouse 5T4 (mouse, UniProt Q9Z0L0 32-426); experiment: flow cytometry, mouse 5T4-transfected cells
T3 construct: whole, on cells; also called murine 5T4
T3 sequence (looked up): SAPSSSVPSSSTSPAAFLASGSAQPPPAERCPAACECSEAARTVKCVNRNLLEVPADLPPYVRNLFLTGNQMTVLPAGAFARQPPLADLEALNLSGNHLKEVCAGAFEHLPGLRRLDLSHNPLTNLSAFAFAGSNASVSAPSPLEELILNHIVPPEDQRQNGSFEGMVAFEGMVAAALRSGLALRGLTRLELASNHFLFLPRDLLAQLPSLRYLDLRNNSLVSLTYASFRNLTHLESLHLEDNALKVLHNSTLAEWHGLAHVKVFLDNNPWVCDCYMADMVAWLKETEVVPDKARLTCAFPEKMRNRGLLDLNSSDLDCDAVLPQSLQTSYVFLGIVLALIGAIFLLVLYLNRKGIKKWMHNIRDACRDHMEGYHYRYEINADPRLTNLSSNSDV

[5] = target: T4, 5T4 (immobilised for SPR) (UniProt Q13641 32-355, limits assumed, biotinylated on the MASS-1 platform); experiment: SPR Biacore 3000, 5T4 amine-coupled, mAb injected, 1:1 Langmuir
T4 construct: also called biotinylated 5T4
T4 sequence (looked up): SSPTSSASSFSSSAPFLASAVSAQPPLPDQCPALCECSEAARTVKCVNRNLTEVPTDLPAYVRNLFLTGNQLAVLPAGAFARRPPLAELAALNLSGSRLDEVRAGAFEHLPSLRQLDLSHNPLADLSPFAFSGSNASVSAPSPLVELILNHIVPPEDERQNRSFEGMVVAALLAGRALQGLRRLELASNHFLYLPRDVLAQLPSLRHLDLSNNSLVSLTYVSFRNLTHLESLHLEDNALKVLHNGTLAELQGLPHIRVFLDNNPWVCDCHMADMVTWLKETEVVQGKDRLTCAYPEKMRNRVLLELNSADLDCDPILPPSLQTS
Procedure: Binding kinetics of the 5T4-specific mAbs have been studied using two different SPR-based platforms, the Biacore 3000 (GE Healthcare) and the MASS-1 platform (Sierra Sensors). Briefly, 5T4 was captured at the sensor chip surface either via direct amine coupling (Biacore platform) or using a streptavidin coated chip and biotinylated 5T4 (MASS-1 platform). The different 5T4-specific mAbs were then injected over the chip in increasing concentrations and the association and dissociation rates studied in real time. A 1:1 Langmuir model was used for curve fitting.

5T4-Fc = target: T5, 5T4-Fc (human, UniProt Q13641 32-355, limits assumed); experiment: ELISA, plates coated with 5T4-Fc
T5 construct: obtained from Peter L. Stern, University of Manchester; also called h5T4-Fc; recombinant 5T4
T5 sequence (looked up): T4 sequence (looked up)
Procedure: ELISA was performed using a standard protocol. Plates (#655074, Greiner Bio-One GmbH, Germany) were pre-coated with 0.5 μg/ml 5T4-Fc (obtained from Peter L. Stern, University of Manchester) overnight. 5T4 antibodies were diluted from 6 to 1.5×10⁻³ μg/ml in 1:4 dilutions and added in duplicates of 50 μl to each well. Binding was detected with rabbit anti-h kappa L-chain-HRP (P0129, Dako Denmark) and the ELISA was developed with SuperSignal ELISA PICO Chemiluminescent substrate (Thermo Scientific Pierce, Rockford, Ill. USA) for 2-10 minutes and read in an automated microplate based multi-detection reader (FLUOstar OPTIMA, Netherlands).

[6] = target: T6, human/mouse 5T4 chimera E7; experiment: flow cytometry, cells with 5T4 chimera; % positive cells over that of the best clone
T6 construct: on stably transfected CHO cells
Procedure: (§3) Epitope mapping was performed by investigation of loss of binding by the antibodies using a panel of human/mouse chimeric 5T4 constructs by flow cytometry. […] Two strategies were used for the epitope mapping as illustrated in FIG. 5. In one approach, seven human/mouse 5T4 chimeras were constructed based on dividing 5T4 into seven different domains (FIG. 5). By replacing each domain with the corresponding mouse sequence seven human/mouse 7 5T4 human/mouse chimeras were generated. The chimeras were generated using the human protein 5T4 sequence NP_006661.1 (reference mRNA sequence NM_006670.4) and the corresponding mouse sequence NP_035757.2 (reference mRNA sequence NM_011627.4). The human/mouse chimeric DNA constructs, as well as human and mouse wild-type 5T4, were cloned into pcDNA3.1 expression vectors. […] In the other approach, cells transfected with a human/mouse 5T4 chimera (Woods et al., 2002) was used, in which mouse sequence in amino acid 173-420 replaced the human sequence (FIG. 5). As controls human 5T4 and mouse 5T4-transfected cells were used.
(§4) For flow cytometric analysis, cells were stained with different 5T4 antibodies diluted in FACS buffer (PBS, 0.5% BSA). […] Samples were analysed by FACSverse (BD Biosciences, Heidelberg, Germany) and % positive cells were determined. To compensate for variations in % 5T4 positive cells in the various transfected populations, binding levels were normalized within each chimera by dividing % positive cells for each clone with % positive cells for the clones resulting in the highest % positive cells (% pos cellsclonX/% positive cellsₘₐₓ). A normalized value≤0.75 was defined as mAb binding being dependent on the replaced region, whereas a normalized value≤0.25 was defined as complete dependence.

[7] = target: T7, human/mouse 5T4 chimera E4; experiment: as above
T7 construct: on stably transfected CHO cells
Procedure: as §3, §4

[8] = target: T8, human/mouse 5T4 chimera E3; experiment: as above
T8 construct: on stably transfected CHO cells
Procedure: as §3, §4

[9] = target: T9, human/mouse 5T4 chimera E5; experiment: as above
T9 construct: on stably transfected CHO cells
Procedure: as §3, §4

[10] = target: T10, human/mouse 5T4 chimera E6; experiment: as above
T10 construct: on stably transfected CHO cells
Procedure: as §3, §4

[11] = target: T11, human/mouse 5T4 chimera E1; experiment: as above
T11 construct: on stably transfected CHO cells
Procedure: as §3, §4

[12] = target: T12, human/mouse 5T4 chimera E2; experiment: as above
T12 construct: on stably transfected CHO cells
Procedure: as §3, §4

B1: 1212/1213 (antibody, IgG1, V domains shown)
VH: EVQLLESGGGLVQPGGSLRLSCAASGFTFSSYAMSWVRQAPGKGLEWVSYISSYGGYTSYADSVKGRFTISRDNSKNTLYLQMNSLRAEDTAVYYCARYHSGVLDYWGQGTLVTVSS
VL: DIQMTQSPSSLSASVGDRVTITCRASQSISSYLNWYQQKPGKAPKLLIYAASSLQSGVPSRFSGSGSGTDFTLTISSLQPEDFATYYCQQYYYHYLLTFGQGTKLEIK
notes: 5T4 antibody
EC50 (cynomolgus 5T4 [1]): 30.7 nM | Normalized EC50 (to 1628) [2]: 0.4 ratio to 1628 | EC50 [3]: 1.4 nM | Normalized EC50 (to 1628) [3]: 1.1 ratio to 1628 | Ratio EC50cyno-5T4/h5T4 (cynomolgus 5T4 [4]): 140 ratio | binding result (mouse 5T4): no binding | kon [5]: 450000 M⁻¹ s⁻¹ | EC50 (5T4-Fc): 0.56 nM | normalized % positive cells [6]: 0.88 | normalized % positive cells [7]: 1 | normalized % positive cells [8]: 0.93 | normalized % positive cells [9]: 0.84 | normalized % positive cells [10]: 0.03 | normalized % positive cells [11]: 0.89 | normalized % positive cells [12]: 0.9
